The values below come from patent US20050037477A1 (BOARD OF REGENTS OF THE UNIVERSITY OF OKLAHOMA, published 2005).

The target in this experiment is T1, human C-terminal HPC-4 epitope-tagged C1β3Gal-T (core 1 β3-galactosyltransferase), full-length (human, UniProt Q9NS00 1-363).
T1 construct: mature; also called HPC4-tagged C1β3Gal-T; recombinant C1β3Gal-T
The experiment is described as follows: Ni-NTA capture of His6-tagged wtCosmc-1 from Hi-5 and 293T cell extracts, C1β3Gal-T activity on the beads. How it is done: Capture of Human Cosmc-1 on Ni-NTA-Superflow-The Ni-NTA-Superflow beads (100 ml) (Qiagen, Inc.) equilibrated with the Ni-NTA washing buffer containing 50 mM NaH₂PO₄, 300 mM NaCl, 20 mM imidazole, 0.1% Triton X-100 (pH 7.8) were incubated with the cell extracts overnight at 4° C. on a rotator. The beads were washed 5 times with 1 ml of the washing buffer. One portion of the beads was removed for C1β3Gal-T enzyme assay. The bound material in the other portion was eluted with 100 ml of eluting solution (50 mM NaH₂PO₄, 300 mM NaCl, 250 mM imidazole, and 0.1% Triton X-100).
To confirm that Cosmc-1 and C1β3Gal-T can associate, we performed Western Blots on the HPC4-tagged C1β3Gal-T expressed in Hi5 cells and 293T cells with or without His₆-tagged wtCosmc-1 or mCosmc-1. When HPC4-tagged C1β3Gal-T was expressed in Hi5 cells in the absence or presence of wtCosmc-1 or mCosmc-1, a considerable amount protein was generated (FIG. 2G), but the enzyme lacked activity except when co-expressed with wtCosmc-1 (FIG. 2A-C). More importantly, HPC4-tagged C1β3Gal-T was present with His₆-tagged wtCosmc-1 when the latter was captured on Ni-NTA (FIGS. 2G,H). […] There was a slight amount of HPC4-tagged C1β3Gal-T detected in the Ni-NTA bound material in the absence of His₆-tagged wtCosmc-1 in 293T cells (FIG. 2H). […]

T1 sequence (Q9NS00 other isoform, or with tags, fused parts or gaps): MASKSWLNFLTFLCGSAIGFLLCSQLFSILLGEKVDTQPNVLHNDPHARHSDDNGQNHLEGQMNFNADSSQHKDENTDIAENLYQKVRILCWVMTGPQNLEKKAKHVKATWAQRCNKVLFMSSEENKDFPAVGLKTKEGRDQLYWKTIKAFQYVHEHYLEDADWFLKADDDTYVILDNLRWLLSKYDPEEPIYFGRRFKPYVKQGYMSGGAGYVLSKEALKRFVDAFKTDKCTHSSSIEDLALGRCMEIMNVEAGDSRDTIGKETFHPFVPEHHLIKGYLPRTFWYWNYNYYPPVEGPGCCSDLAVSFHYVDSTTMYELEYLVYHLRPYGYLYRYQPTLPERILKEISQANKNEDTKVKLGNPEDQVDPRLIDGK

B1: human C-terminal His6-tagged Cosmc-1 (wild-type; Core 1 β3-Gal-T Specific Molecular Chaperone-1) (other)
chain: MLSESSSFLKGVMLGSIFCALITMLGHIRIGHGNRMHHHEHHHLQAPNKEDILKISEDERMELSKSFRVYCIILVKPKDVSLWAAVKETWTKHCDKAEFFSSENVKVFESINMDTNDMWLMMRKAYKYAFDKYRDQYNWFFLARPTTFAIIENLKYFLLKKDPSQPFYLGHTIKSGDLEYVGMEGGIVLSVESMKRLNSLLNIPEKCPEQGGMIWKISEDKQLAVCLKYAGVFAENAEDADGKDVFNTKSVGLSIKEAMTYHPNQVVEGCCSDMAVTFNGLTPNQMHVMMYGVYRLRAFGHIFNDALVFLPPNGSDNDHHHHHH
notes: Co-expressed with C1β3Gal-T in Hi-5 insect cells or 293T cells and captured from Triton X-100 cell extracts on Ni-NTA; also called wtCosmc-1; wt-Cosmc-1
As to B1, the binding result is listed as “binds”.
